These results are taken from patent publication US20080207501A1.

In this assay the target is T1, amylin receptor (nucleus accumbens membranes prepared from rat brain) (rat), P32214.
T1 chain 1: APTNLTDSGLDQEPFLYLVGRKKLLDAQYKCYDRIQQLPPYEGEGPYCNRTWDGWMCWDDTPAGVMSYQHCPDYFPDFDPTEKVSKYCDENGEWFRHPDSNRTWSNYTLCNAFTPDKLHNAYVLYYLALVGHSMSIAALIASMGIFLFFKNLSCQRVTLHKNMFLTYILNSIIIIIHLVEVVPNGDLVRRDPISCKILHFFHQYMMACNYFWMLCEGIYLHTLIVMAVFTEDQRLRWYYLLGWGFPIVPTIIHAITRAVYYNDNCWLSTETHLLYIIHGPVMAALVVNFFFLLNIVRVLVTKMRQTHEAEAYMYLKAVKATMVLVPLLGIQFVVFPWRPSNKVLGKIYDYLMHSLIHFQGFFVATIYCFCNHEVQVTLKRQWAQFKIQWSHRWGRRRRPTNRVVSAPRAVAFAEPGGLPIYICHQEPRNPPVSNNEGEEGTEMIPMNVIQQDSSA
T1 chain 2: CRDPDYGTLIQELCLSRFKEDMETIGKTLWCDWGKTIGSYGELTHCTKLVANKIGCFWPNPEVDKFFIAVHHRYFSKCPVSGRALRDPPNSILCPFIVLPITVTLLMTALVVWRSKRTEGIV
Nature of the assay: radioligand displacement, 125I-rat amylin, rat nucleus accumbens membranes. On the technique in general: Loss of bound radioactivity is the signal in a displacement assay; it reports binding, not function.

In general, IC50 refers to the point on the concentration scale where inhibition reaches its midpoint. High values mean weaker potency, low ones greater potency.

B1: r/h Calcitonin (peptide)
chain: CGNLSTCMLGTYTQDFNKFHTFPQTAIGVGAP
modifications: not checked
B1 displayed an IC50 of 100 nM.
